Literature values in patent publication US11707610B2, “Ingestible device for delivery of therapeutic agent to the gastrointestinal tract” (BIORA THERAPEUTICS, INC., priority 2019, dated 2023).
Where two headings read alike, the source gives them in different places. Each block holds one substance with its values, some of them ahead of it.

What was measured:
[1] = for bioavailability: by SC injection; for Approved Dosing Info: Bio Avail: Table 16, approved injection, Admin SC
[2] = self-administration of 360,000 units, medical observation

- bioavailability [1]: approximately 87%
- primary mode of elimination ([1]; in vivo): kidneys
- stability at room temperature (room temperature): stable
- outcome of overdose [2]: no notable sequelae
Substance: Dalteparin

Substance: Human Growth Hormone [Genotropin ®]
- Storage temperature: time after reconstitution (2-8° C., after reconstitution): 2-8 °C 4 weeks

Substance: adalimumab
- Approved Dosing Info: Bio Avail [1]: 64%
- bioavailability [1]: 64%
- bioavailability ([1]; listed as Adalimumab): approximately 64%
- half-life ([1]; in vivo): approximately 2 weeks
- primary mode of elimination ([1]; in vivo): intracellular catabolism

Substance: certolizumab-pegol [Cimzia ®]
- Storage temperature: time at room temp (room temp): 2 hrs at

Substance: etanerecpt [Embrel ®]
- Storage temperature: time at 25° C. (25° C.): 14 days

Substance: infliximab [Remicade ®]
- Storage temperature: time at 30° C. (30° C.): to 12 months

Substance: semaglutide [compound 4]
- Approved Dosing Info: Bio Avail [1]: 89%
